In US12269859B2, “Synthetic immune receptors and methods of use thereof” (Angeles Therapeutics, Inc., priority 2016, dated 2025):

Test system: target antigen-expressing cell line
Test: Jurkat NFAT-GFP assay, coculture with target cell lines expressing the respective target antigen (summary Table 10A)
Assay type: cell-based, human
Parameters: key: The signs +/−, +, 2+ etc. after the name of the cell lines indicate the relative degree of positivity on the Jurkat-NFAT-GFP assay as measured by the % GFP positive cells; +: relative degree of positivity on the Jurkat-NFAT-GFP assay as measured by the % GFP positive cells; 2+: relative degree of positivity on the Jurkat-NFAT-GFP assay as measured by the % GFP positive cells
Conditions: SIR-expressing Jurkat-NFAT-GFP cells cocultured with NALM6; relative % GFP positive cells
Summary of the method: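 Jurkat cells carrying an NFAT-site IL-2 promoter driving GFP were lentivirally transduced with SIRs, puromycin-selected, then cocultured with antigen-expressing target cells at E:T about 1:2 for about 4–18 hours. GFP induction was read by flow cytometry as % GFP-positive cells versus parental Jurkat-NFAT-GFP.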

Molecule	NFAT-GFP ASSAY Positive Cell lines: NALM6
022817-T04 (protein) MALPVTALLLPLALLLHAARPEIVLTQSPATLSLSPGERATLSCRASQSVSSYLAWYQQKPGQAPRLLIYDASNRATGIPARFSGSGSGTDFTLTISSLEPEDFAVYYCQQRSNWPITFGQGTRLEIKLEGKPIPNPLLGLDSTGSGEDLKNVFPPEVAVFEPSKAEIAHTQKATLVCLATGFYPDHVELSWWVNGKEVHSGVCTDPQPLKEQPALNDSRYCLSSRLRVSATFWQNPRNHFRCQVQFYGLSENDEWTQDRAKPVTQIVSAEAWGRADCGITSASYHQGVLSATILYEILLGKATLYAVLVSALVLMAMVKRKDSRGRAKRSGSGATNFSLLKQAGDVEENPGPTSMDWIWRILFLVGAATGAHSFEEVQLVESGGGLVQPDRSLRLSCAASGFTFHDYAMHWVRQAPGKGLEWVSTISWNSGTIGYADSVKGRFTISRDNAKNSLYLQMNSLRAEDTALYYCAKDIQYGNYYYGMDVWGQGTTVTVSSTREQKLISEEDGSGIQNPDPAVYQLRDSKSSDKSVCLFTDFDSQTNVSQSKDSDVYITDKCVLDMRSMDFKSNSAVAWSNKSDFACANAFNNSIIPEDTFFPSSDVPCDVKLVEKSFETDTNLNFQNLSVIGFRILLLKVAGFNLLMTLRLWSSRAKRSGSGVKQTLNFDLLKLAGDVESNPGPSRGHMTEYKPTVRLATRDDVPRAVRTLAAAFADYPATRHTVDPDRHIERVTELQELFLTRVGLDIGKVWVADDGAAVAVWTTPESVEAGAVFAEIGPRMAELSGSRLAAQQQMEGLLAPHRPKEPAWFLATVGVSPDHQGKGLGSAVVLPGVEAAERAGVPAFLETSAPRNLPFYERLGFTVTADVEVPEGPRTWCMTRKPGA	(2+)

Same assay, conditions: SIR-expressing Jurkat-NFAT-GFP cells cocultured with RAJI; relative % GFP positive cells

Molecule	NFAT-GFP ASSAY Positive Cell lines: RAJI
030817-X05 (protein) MALPVTALLLPLALLLHAARPDIQMTQSPSSLSASVGDRVTITCRASSSVSYMHWYQQKPGKAPKPLIYAPSNLASGVPSRFSGSGSGTDFTLTISSLQPEDFATYYCQQWSFNPPTFGQGTKVEIKRLEDLKNVFPPEVAVFEPSKAEIAHTQKATLVCLATGFYPDHVELSWWVNGKEVHSGVCTDPQPLKEQPALNDSRYCLSSRLRVSATFWQNPRNHFRCQVQFYGLSENDEWTQDRAKPVTQIVSAEAWGRADCGITSASYHQGVLSATILYEILLGKATLYAVLVSALVLMAMVKRKDSRGRAKRSGSGATNFSLLKQAGDVEENPGPTSMDWIWRILFLVGAATGAHSFEEVQLVESGGGLVQPGGSLRLSCAASGYTFTSYNMHWVRQAPGKGLEWVGAIYPGNGDTSYNQKFKGRFTISVDKSKNTLYLQMNSLRAEDTAVYYCARVVYYSNSYWYFDVWGQGTLVTVSSTRIQNPDPAVYQLRDSKSSDKSVCLFTDFDSQTNVSQSKDSDVYITDKCVLDMRSMDFKSNSAVAWSNKSDFACANAFNNSIIPEDTFFPSSDVPCDVKLVEKSFETDTNLNFQNLSVIGFRILLLKVAGFNLLMTLRLWSSRAKRSGSGVKQTLNFDLLKLAGDVESNPGPSRGHMTEYKPTVRLATRDDVPRAVRTLAAAFADYPATRHTVDPDRHIERVTELQELFLTRVGLDIGKVWVADDGAAVAVWTTPESVEAGAVFAEIGPRMAELSGSRLAAQQQMEGLLAPHRPKEPAWFLATVGVSPDHQGKGLGSAVVLPGVEAAERAGVPAFLETSAPRNLPFYERLGFTVTADVEVPEGPRTWCMTRKPGA	RAJI (+/−)
012417-K04 (protein) MALPVTALLLPLALLLHAARPLEGKPIPNPLLGLDSTGSGEDLKNVFPPEVAVFEPSKAEIAHTQKATLVCLATGFYPDHVELSWWVNGKEVHSGVCTDPQPLKEQPALNDSRYCLSSRLRVSATFWQNPRNHFRCQVQFYGLSENDEWTQDRAKPVTQIVSAEAWGRADCGITSASYHQGVLSATILYEILLGKATLYAVLVSALVLMAMVKRKDSRGRAKRSGSGATNFSLLKQAGDVEENPGPTSMALPVTALLLPLALLLHAARPQIVLSQSPAILSASPGEKVTMTCRASSSVSYMHWYQQKPGSSPKPWIYATSNLASGVPARFSGSGSGTSYSFTISRVEAEDAATYYCQQWTFNPPTFGGGTRLEIKRTVAAGGGGSGGGGSGGGGSQAYLQQSGAELVRPGASVKMSCKASGYTFTSYNMHWVKQTPRQGLEWIGGIYPGNGDTSYNQKFKGKATLTVGKSSSTAYMQLSSLTSEDSAVYFCARYDYNYAMDYWGQGTSVTVSSASTREQKLISEEDGSGIQNPDPAVYQLRDSKSSDKSVCLFTDFDSQTNVSQSKDSDVYITDKCVLDMRSMDFKSNSAVAWSNKSDFACANAFNNSIIPEDTFFPSSDVPCDVKLVEKSFETDTNLNFQNLSVIGFRILLLKVAGFNLLMTLRLWSSRAKRSGSGVKQTLNFDLLKLAGDVESNPGPSRGHMTEYKPTVRLATRDDVPRAVRTLAAAFADYPATRHTVDPDRHIERVTELQELFLTRVGLDIGKVWVADDGAAVAVWTTPESVEAGAVFAEIGPRMAELSGSRLAAQQQMEGLLAPHRPKEPAWFLATVGVSPDHQGKGLGSAVVLPGVEAAERAGVPAFLETSAPRNLPFYERLGFTVTADVEVPEGPRTWCMTRKPGA	RAJI (+)
030817-W07 (protein) MALPVTALLLPLALLLHAARPSTVMTQSPDSLAVSLGERATINCKSSQSNSNDVAWYQQKPGQSPKVLIYFASNRYSGVPDRFSGSGYGTDFTLTISSLQAEDVAVYFCQQDYSSPLTFGAGTKLELKRADALEDLKNVFPPEVAVFEPSKAEIAHTQKATLVCLATGFYPDHVELSWWVNGKEVHSGVCTDPQPLKEQPALNDSRYCLSSRLRVSATFWQNPRNHFRCQVQFYGLSENDEWTQDRAKPVTQIVSAEAWGRADCGITSASYHQGVLSATILYEILLGKATLYAVLVSALVLMAMVKRKDSRGRAKRSGSGATNFSLLKQAGDVEENPGPTSMDWIWRILFLVGAATGAHSFEQIQLVQSGSELKKPGASVKVSCKASGYTFTNFGVNWVRQAPGKGLEWMGWINTYTGEPSYAQGFTGRFVFSLDASVSTAYLQISSLKAEDTATYFCTRRTNYYGTSYYYAMDYWGQGTTVTVSSAKTTTRIQNPDPAVYQLRDSKSSDKSVCLFTDFDSQTNVSQSKDSDVYITDKCVLDMRSMDFKSNSAVAWSNKSDFACANAFNNSIIPEDTFFPSSDVPCDVKLVEKSFETDTNLNFQNLSVIGFRILLLKVAGFNLLMTLRLWSSRAKRSGSGVKQTLNFDLLKLAGDVESNPGPSRGHMTEYKPTVRLATRDDVPRAVRTLAAAFADYPATRHTVDPDRHIERVTELQELFLTRVGLDIGKVWVADDGAAVAVWTTPESVEAGAVFAEIGPRMAELSGSRLAAQQQMEGLLAPHRPKEPAWFLATVGVSPDHQGKGLGSAVVLPGVEAAERAGVPAFLETSAPRNLPFYERLGFTVTADVEVPEGPRTWCMTRKPGA	RAJI (+/−)
030817-F07 (protein) MALPVTALLLPLALLLHAARPEIVLTQSPGTLSLSPGERATLSCRASSSVPYIHWYQQKPGQAPRLLIYATSALASGIPDRFSGSGSGTDFTLTISRLEPEDFAVYYCQQWLSNPPTFGQGTKLELKRLEIQNPDPAVYQLRDSKSSDKSVCLFTDFDSQTNVSQSKDSDVYITDKCVLDMRSMDFKSNSAVAWSNKSDFACANAFNNSIIPEDTFFPSSDVPCDVKLVEKSFETDTNLNFQNLSVIGFRILLLKVAGFNLLMTLRLWSSRAKRSGSGVKQTLNFDLLKLAGDVESNPGPTSMDWIWRILFLVGAATGAHSFEEVQLVQSGAEVKKPGESLKLSCKGSGRTFTSYNMHWVRQMPGKGLEWMGAIYPLTGDTSYNQKSKLQVTISADKSISTAYLQWSSLKASDTAMYYCARSTYVGGDWQFDVWGKGTTVTVSSTREDLKNVFPPEVAVFEPSKAEIAHTQKATLVCLATGFYPDHVELSWWVNGKEVHSGVCTDPQPLKEQPALNDSRYCLSSRLRVSATFWQNPRNHFRCQVQFYGLSENDEWTQDRAKPVTQIVSAEAWGRADCGITSASYHQGVLSATILYEILLGKATLYAVLVSALVLMAMVKRKDSRGRAKRSGSGATNFSLLKQAGDVEENPGPSRGHMTEYKPTVRLATRDDVPRAVRTLAAAFADYPATRHTVDPDRHIERVTELQELFLTRVGLDIGKVWVADDGAAVAVWTTPESVEAGAVFAEIGPRMAELSGSRLAAQQQMEGLLAPHRPKEPAWFLATVGVSPDHQGKGLGSAVVLPGVEAAERAGVPAFLETSAPRNLPFYERLGFTVTADVEVPEGPRTWCMTRKPGA	RAJI (+/−)
012517-Q12 (protein) MALPVTALLLPLALLLHAARPLEGKPIPNPLLGLDSTGSGEDLKNVFPPEVAVFEPSKAEIAHTQKATLVCLATGFYPDHVELSWWVNGKEVHSGVCTDPQPLKEQPALNDSRYCLSSRLRVSATFWQNPRNHFRCQVQFYGLSENDEWTQDRAKPVTQIVSAEAWGRADCGITSASYHQGVLSATILYEILLGKATLYAVLVSALVLMAMVKRKDSRGRAKRSGSGATNFSLLKQAGDVEENPGPTSMALPVTALLLPLALLLHAARPEIVLTQSPGTLSLSPGERATLSCRASSSVPYIHWYQQKPGQAPRLLIYATSALASGIPDRFSGSGSGTDFTLTISRLEPEDFAVYYCQQWLSNPPTFGQGTKLELKRGGGGSGGGGSGGGGSEVQLVQSGAEVKKPGESLKLSCKGSGRTFTSYNMHWVRQMPGKGLEWMGAIYPLTGDTSYNQKSKLQVTISADKSISTAYLQWSSLKASDTAMYYCARSTYVGGDWQFDVWGKGTTVTVSSTREQKLISEEDGSGIQNPDPAVYQLRDSKSSDKSVCLFTDFDSQTNVSQSKDSDVYITDKCVLDMRSMDFKSNSAVAWSNKSDFACANAFNNSIIPEDTFFPSSDVPCDVKLVEKSFETDTNLNFQNLSVIGFRILLLKVAGFNLLMTLRLWSSRAKRSGSGVKQTLNFDLLKLAGDVESNPGPSRGHMTEYKPTVRLATRDDVPRAVRTLAAAFADYPATRHTVDPDRHIERVTELQELFLTRVGLDIGKVWVADDGAAVAVWTTPESVEAGAVFAEIGPRMAELSGSRLAAQQQMEGLLAPHRPKEPAWFLATVGVSPDHQGKGLGSAVVLPGVEAAERAGVPAFLETSAPRNLPFYERLGFTVTADVEVPEGPRTWCMTRKPGA	RAJI (+)
